Reference: article PMC3069017 (Molecular Biology of the Cell, 2011)

Target: T1, GST-IFT54 (mouse, UniProt Q149C2 1-625)
T1 sequence (looked up): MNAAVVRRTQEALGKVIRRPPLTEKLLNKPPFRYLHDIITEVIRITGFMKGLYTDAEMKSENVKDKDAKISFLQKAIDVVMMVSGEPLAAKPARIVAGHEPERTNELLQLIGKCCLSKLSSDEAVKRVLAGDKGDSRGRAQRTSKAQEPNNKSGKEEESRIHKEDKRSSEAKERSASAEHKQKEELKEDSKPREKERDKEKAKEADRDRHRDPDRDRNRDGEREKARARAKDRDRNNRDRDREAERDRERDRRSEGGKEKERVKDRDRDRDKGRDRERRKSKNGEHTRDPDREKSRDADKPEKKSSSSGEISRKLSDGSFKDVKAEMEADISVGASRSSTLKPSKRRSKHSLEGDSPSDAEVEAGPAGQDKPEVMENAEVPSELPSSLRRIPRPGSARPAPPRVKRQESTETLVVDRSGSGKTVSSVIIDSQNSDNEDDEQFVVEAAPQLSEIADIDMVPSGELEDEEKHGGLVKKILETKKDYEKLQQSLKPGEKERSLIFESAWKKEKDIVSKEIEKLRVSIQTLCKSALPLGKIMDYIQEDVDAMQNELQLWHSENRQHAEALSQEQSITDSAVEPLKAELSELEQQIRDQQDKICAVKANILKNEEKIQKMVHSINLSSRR
Assay: pull-down

B1: purified, untagged IFT20 (natural protein, mouse, UniProt Q61025-1 1-132, looked up)
chain: MAKDILGEAGLHFDELNKLRVLDPEVTQQTVELKEECKDFVDKIGQFQKIVGGLIELVDQLAKEAENEKMKAIGARNLLKSIAKQREAQQQQLQALIAEKKTQLERYRVEYEALCKVEAEQNEFIDQFIFQK
**Q.** Does B1 bind?
**A.** Result: binds
